Results on 31 molecules are retold here after EP1340979A2, “Neuropeptide receptor and uses thereof” (Pfizer Limited, priority 2002, dated 2003).

Where a SMILES comes first, the peptide text is derived from it. Bridges are numbered along the chain shown (N, C = ends). [ ]: non-standard residue; d: D form. The star is where a group is joined. d2Nal = N[C@H](Cc1ccc2ccccc2c1)C(=O)O; Nle = CCCC[C@H](N)C(=O)O; Ahp = NCCCCCCC(=O)O; Bn = c1ccc(C*)cc1

The first assay addresses receptor MRGX2 (human) (UniProt Q96LB1). As to the kind of experiment: cell-based or functional assay.
Conditions: not given
For the molecule Octreotide (peptide), the EC50 (µM), intracellular calcium mobilisation (FLIPR) was more than 10 µM.
On the same count and under the same terms, then “HS024 (Acetyl-Cys^3,Nle^4,Arg^5,D-2-Nal^7,Cys^11)-α-MSH (3-11) amide (from UniProt P01189 140-148) (peptide)”, with 0.42 µM; and NPSF (peptide), with more than 10 µM.
Same read-out and setting: then HS014 (peptide), with more than 10 µM.
Consider “D-Trp-Somatostatin (from UniProt P61278 103-116) (peptide)”, for which the EC50 (µM), intracellular calcium mobilisation (FLIPR) came to 0.179 µM.
With “Somatostatin 14 (from UniProt P61278 89-116) (peptide)”, the EC50 (µM), intracellular calcium mobilisation (FLIPR) is 0.78 µM.
For the molecule “N9642 (β-(2-Naphthyl)-D-Ala-Cys-Tyr-D-Trp-Lys-Val-Cys-Thr amide [Disulfide Bridge: 2-7] (sst2R agonist)) (peptide)”, the EC50 (µM), intracellular calcium mobilisation (FLIPR) was 0.251 µM.
On the same count and under the same terms, then “BAM 13-22 (from UniProt P01211 37-46) (peptide)”, with 0.1 µM; and “NPVF (from UniProt Q9HCQ7 124-131) (peptide)”, with more than 10 µM; and Hexarelin (peptide), with 9.5 µM.
For “Nociceptin (from UniProt Q13519 130-146) (peptide)”, the EC50 (µM), intracellular calcium mobilisation (FLIPR) was more than 10 µM.
Same read-out and setting: the result for “NPAF (from UniProt O15130 93-110) (peptide)” reads more than 10 µM; that for “Apelin 13 (from UniProt Q9ULZ1 65-77) (peptide)”, more than 10 µM.
Same read-out and setting: the result for Cyclosomatostatin (peptide) reads 1.47 µM; that for “(Ser^4, Ile^8)-Oxytocin (from UniProt P01178 20-28) (peptide)”, 7.4 µM.
Same read-out and setting: the result for “Dynorphin A (from UniProt P01213 207-219) (peptide)” reads 1.85 µM.
Regarding “Oxytocin (from UniProt P01178 20-28) (peptide)”, the EC50 (µM), intracellular calcium mobilisation (FLIPR) is 1.47 µM.
The same measure, in the same setting: the result for “(Deamino-Cysl,D-Orn^8) Vasopressin (from UniProt P01185 20-28) (peptide)” reads more than 10 µM.

The next assay addresses five known SST receptors.
Test: not given
To be noted: range over the five known SST receptors; cited from earlier work.
For orientation: EC50 means the midpoint of the concentration-response curve. Take “Cortistatin (PCKNFFWKTFSSCK) [CST, cyclic peptide derived from a prepropeptide of 114 residues in man]”: the EC50 is 0.00025 to 0.0009 µM.

The target in another assay is MC4 receptor (Homo sapiens, UniProt P32245).
Sequence of MC4 receptor (P32245 whole entry): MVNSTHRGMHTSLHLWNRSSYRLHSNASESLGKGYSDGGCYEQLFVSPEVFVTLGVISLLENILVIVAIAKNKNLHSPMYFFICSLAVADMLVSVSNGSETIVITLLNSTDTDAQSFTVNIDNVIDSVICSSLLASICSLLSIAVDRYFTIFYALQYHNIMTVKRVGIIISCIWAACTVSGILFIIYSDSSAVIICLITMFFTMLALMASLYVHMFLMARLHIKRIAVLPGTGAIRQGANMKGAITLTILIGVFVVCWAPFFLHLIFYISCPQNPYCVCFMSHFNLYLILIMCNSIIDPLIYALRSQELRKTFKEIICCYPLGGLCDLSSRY
Test: not given
To be noted: cited from earlier work.
The Ki is the dissociation constant of the complex between target and ligand, obtained from inhibition or displacement. Regarding `CCCC[C@@H]1NC(=O)[C@@H](NC(C)=O)CSSC[C@@H](C(N)=O)NC(=O)CNC(=O)[C@H](Cc2c[nH]c3ccccc23)NC(=O)[C@H](CCCNC(=N)N)NC(=O)[C@@H](Cc2ccc3ccccc3c2)NC(=O)[C@H](Cc2c[nH]cn2)NC(=O)[C@H](CCCNC(=N)N)NC1=O` [HS024, (Acetyl-Cys^3,Nle^4,Arg^5,D-2-Nal^7,Cys^11)-a-MSH (3-11) amide] (Ac-C[Nle]RH[d2Nal]RWGC-NH2; disulfide 1-9 (inferred)), the Ki is 0.00029 µM.

The next assay concerns SNSR3.
Test: not given
To be noted: SNSR3 (MRGX1); cited from earlier work.
Regarding “Bovine adrenal medulla peptide 22 [BAM 22]”, the EC50 is 0.013 µM.

For another assay, the target named is T1, receptor MRGX2 (Homo sapiens, UniProt Q96LB1).
T1 sequence (Q96LB1 1-330): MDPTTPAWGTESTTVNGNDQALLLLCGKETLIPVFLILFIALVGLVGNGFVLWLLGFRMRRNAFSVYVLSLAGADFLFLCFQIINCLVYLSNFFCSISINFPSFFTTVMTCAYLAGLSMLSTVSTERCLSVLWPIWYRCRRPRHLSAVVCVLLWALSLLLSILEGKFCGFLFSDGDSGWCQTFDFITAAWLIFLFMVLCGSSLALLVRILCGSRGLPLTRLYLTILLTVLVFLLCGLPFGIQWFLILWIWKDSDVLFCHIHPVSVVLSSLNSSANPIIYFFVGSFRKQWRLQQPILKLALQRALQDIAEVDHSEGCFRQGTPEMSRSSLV
As to the kind of experiment: Functional assay measuring intracellular calcium mobilisation (FLIPR). The format is cell-based. Details: expressed in transfected cells; host or cells: e.g. HEK293 or CHO-K1 engineered to stably express Galpha15 / Gqi-5.
Conditions: not given
Take `CSCC[C@H](NC(=O)[C@@H]1CCCN1C(=O)CNC(=O)[C@H](CCCCN)NC(=O)[C@H](Cc1cnc[nH]1)NC(=O)[C@H](CO)NC(=O)[C@H](CC(C)C)NC(=O)[C@H](CCCNC(=N)N)NC(=O)[C@@H]1CCCN1C(=O)[C@H](CCCNC(=N)N)NC(=O)[C@@H](N)CCC(N)=O)C(=O)N1CCC[C@H]1C(=O)N[C@@H](Cc1ccccc1)C(=O)O` [Apelin 13]: the EC50 was more than 10 µM.

The assay is the same for the next values; noted with them: Preliminary EC50 data for receptor MRGX2; transiently transfected host cells expressing Gα15 / Gqi-5, Fluo3 fluorescence; read-out: EC50.
`C[C@@H](OCc1ccccc1)[C@@H]1NC(=O)[C@H](CCCCN)NC(=O)[C@@H](Cc2c[nH]c3ccccc23)NC(=O)[C@H](Cc2ccccc2)NC(=O)CCCCCCNC1=O` [Cyclosomatostatin] (cyclo([Ahp]F[dW]KT(Bn)); ring closure inferred): the EC50 was determined as 1.47 µM.
The same measure, in the same setting: the result for `CC(C)[C@@H]1NC(=O)[C@H](CCCCN)NC(=O)[C@@H](Cc2c[nH]c3ccccc23)NC(=O)[C@H](Cc2ccc(O)cc2)NC(=O)[C@@H](NC(=O)[C@H](N)Cc2ccc3ccccc3c2)CSSC[C@@H](C(=O)N[C@H](C(N)=O)[C@@H](C)O)NC1=O` [Peptide N9642, β-(2-Naphthyl)-D-Ala-Cys-Tyr-D-Trp-Lys-Val-Cys-Thr amide [Disulfide Bridge: 2-7]] reads 0.251 µM; that for `CC(C)C[C@H](NC(=O)[C@H](CC(N)=O)NC(=O)[C@@H]1CCCN1C(=O)[C@@H](N)C(C)C)C(=O)N1CCC[C@H]1C(=O)N[C@@H](CCC(N)=O)C(=O)N[C@@H](CCCNC(=N)N)C(=O)N[C@@H](Cc1ccccc1)C(N)=O` [NPVF], more than 10 µM; that for `C[C@H](N)C(=O)NCC(=O)N[C@H]1CSSC[C@@H](C(=O)O)NC(=O)[C@H](CO)NC(=O)[C@H]([C@@H](C)O)NC(=O)[C@H](Cc2ccccc2)NC(=O)[C@H]([C@@H](C)O)NC(=O)[C@H](CCCCN)NC(=O)[C@@H](Cc2c[nH]c3ccccc23)NC(=O)[C@H](Cc2ccccc2)NC(=O)[C@H](Cc2ccccc2)NC(=O)[C@H](CC(N)=O)NC(=O)[C@H](CCCCN)NC1=O` [D-Trp-Somatostatin], 0.179 µM.
Same read-out and setting: then `CC[C@H](C)[C@@H]1NC(=O)[C@H](Cc2ccc(O)cc2)NC(=O)[C@@H](N)CSSC[C@@H](C(=O)N2CCC[C@H]2C(=O)N[C@@H](CC(C)C)C(=O)NCC(N)=O)NC(=O)[C@H](CC(N)=O)NC(=O)[C@H](CCC(N)=O)NC1=O` [Oxytocin], with 1.47 µM; and `CC[C@H](C)[C@@H]1NC(=O)[C@H](Cc2ccc(O)cc2)NC(=O)[C@@H](N)CSSC[C@@H](C(=O)N2CCC[C@H]2C(=O)N[C@H](C(=O)NCC(N)=O)[C@@H](C)CC)NC(=O)[C@H](CC(N)=O)NC(=O)[C@H](CO)NC1=O` [(Ser^4, Ile^8)-Oxytocin] (H-CYISNCPIG-NH2; disulfide 1-6), with 7.4 µM.

The assay is the same for the next values; noted with them: at a concentration of 1µM.
Regarding α-MSH, the “response of the MRGX2 receptor” value was “responds”.
The same measure, in the same setting: the result for γ-MSH reads “responds”.

A further assay concerns the target T1, receptor MRGX2. Described as above. To be noted: Preliminary EC50 data for receptor MRGX2; transiently transfected host cells expressing Gα15 / Gqi-5, Fluo3 fluorescence. The assay is classed as cell-based. Details: expressed in transfected cells; host or cells: host cell line, e.g. HEK293 or CHO-K1, engineered to stably express Gα15 / Gqi-5. The protocol: 5 x 10^6 cells of a suitable host cell line, chosen to express a low number of endogenous receptors (e.g. HEK293 or CHO-K1) and engineered to stably express Gα15 / Gqi-5, were transiently transfected with 7.5 µg of cDNA encoding receptor MRGX2 in a suitable mammalian cell expression vector, or vector alone, using Lipofectamine Plus® reagent (Gibco BRL) as per the manufacturer's protocol. If the cells were intended for a ligand binding assay or microphysiometry, they were incubated for 24-72 hours post transfection, and then harvested. […]
Fluorescence Imaging Plate Reader (FLIPR®) technology was employed as a means to detect activation of receptor MRGX2 by various potential GPCR agonists.
Cells were transfected as described in Example 3. […] The FLIPR® processing involved reading the fluorescence for all samples for 2 minutes; during this time the fluorescence baseline was determined for 10 seconds. The desired amount of compounds (i.e. potential GPCR agonists) was then automatically transferred to the wells and the fluorescence was continuously monitored for the remainder of the time. […]
Compounds capable of acting as agonists for the receptor were identified by them causing a transient rise in fluorescence, and therefore in intracellular calcium, in the cells.
Turning to `Nc1ncnc2nc[nH]c12` [Adenine], the EC50 entry is recorded as “No response”.

Test system in the next assay: not given
Test: not given
As to conditions: i.c.v. administration, free feeding rats, maximal response at 1nmol dose; cited from earlier work.
In the case of `CCCC[C@@H]1NC(=O)[C@@H](NC(C)=O)CSSC[C@@H](C(N)=O)NC(=O)CNC(=O)[C@H](Cc2c[nH]c3ccccc23)NC(=O)[C@H](CCCNC(=N)N)NC(=O)[C@@H](Cc2ccc3ccccc3c2)NC(=O)[C@H](Cc2c[nH]cn2)NC(=O)[C@H](CCCNC(=N)N)NC1=O` [HS024, (Acetyl-Cys^3,Nle^4,Arg^5,D-2-Nal^7,Cys^11)-a-MSH (3-11) amide] (Ac-C[Nle]RH[d2Nal]RWGC-NH2; disulfide 1-9 (inferred)), the food intake result is on record as “dose dependant increase in food intake”.
